Measured values reported in article PMC6125598.

Biological target: STIM1-CFP (stromal interacting molecule 1) (UniProt Q13586)
Experiment: FRET or BRET; FRET between YFP-IP3R and STIM1-CFP in transfected cells, measured in TIRFM mode (less than 100 nm from the coverslip), after bradykinin stimulation (cells transfected with the human bradykinin type 2 receptor)

Sequence of UniProt Q13586 (Q13586 23-685): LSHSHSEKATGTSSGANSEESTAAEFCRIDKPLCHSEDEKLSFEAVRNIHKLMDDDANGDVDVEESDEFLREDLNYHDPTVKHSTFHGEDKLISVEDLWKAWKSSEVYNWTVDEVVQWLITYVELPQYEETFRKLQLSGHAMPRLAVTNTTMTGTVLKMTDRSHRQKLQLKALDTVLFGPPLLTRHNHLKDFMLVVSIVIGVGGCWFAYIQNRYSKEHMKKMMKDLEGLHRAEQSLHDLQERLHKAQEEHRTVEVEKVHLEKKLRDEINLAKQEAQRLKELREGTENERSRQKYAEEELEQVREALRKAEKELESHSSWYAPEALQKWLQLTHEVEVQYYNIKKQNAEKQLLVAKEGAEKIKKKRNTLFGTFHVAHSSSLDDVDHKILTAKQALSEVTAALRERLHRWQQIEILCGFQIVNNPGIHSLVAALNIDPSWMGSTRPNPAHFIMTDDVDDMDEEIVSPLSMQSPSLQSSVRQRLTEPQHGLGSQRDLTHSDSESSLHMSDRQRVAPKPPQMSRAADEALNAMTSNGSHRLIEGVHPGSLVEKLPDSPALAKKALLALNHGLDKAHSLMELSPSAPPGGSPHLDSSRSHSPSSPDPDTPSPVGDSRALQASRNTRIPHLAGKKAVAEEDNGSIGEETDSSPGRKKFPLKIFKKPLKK

With “YFP-IP3R (inositol trisphosphate receptor type 1) (from UniProt Q14643-2 1-2743)” the FRET efficiency was 24%.
